Results: EP4793287A1, “TUMOR MICROENVIRONMENT SPECIFICALLY ACTIVATED CD47 ANTIBODY” (Affinity (Shanghai) Biopharmaceutical Co., Ltd., priority 2023, dated 2025)

Target: T1, Recombinant human CD47 protein (Homo sapiens, UniProt Q08722)
T1 construct: purchased DIMA BIOTECH PME-100008
Assay: ELISA detection of CD47 antibody
Assay type: binding
Description: Recombinant human CD47 protein (DIMA BIOTECH, Cat# PME-100008) was diluted with PBS to a concentration of 1 µg/ml, coated onto ELISA plates with 100 µl/well, and incubated overnight at 4 °C. On the following day, the plates were washed with 300 µl/well of PBST for three times. 300 µl/well of blocking solution (PBST containing 1% BSA (W/W)) was added, and the plates were blocked at 37 °C for 2 hours. After the blocking solution was discarded, the plates were washed with PBST for three times. 100 µl/well of antibody (5-fold gradient dilution, 8 dilution points) was added and incubated at 37 °C for 1 hour. The antibody solution was then discarded, and the plates were washed with PBST for three times. Goat anti-Human IgG Fc Highly Cross-Adsorbed Secondary Antibody, HRP (Invitrogen, Cat# A18829, 1:5000 dilution, 100 µl/well) was added and incubated at 37 °C for 0.5 hours, followed by three washes with PBST. 100 µl/well of TMB chromogenic substrate (solarbio, Cat# PR1200) was added and incubated at 37 °C for 5 minutes, after which 50 µl/well of ELISA stop solution (solarbio, Cat# C1058) was added. The OD450 was read using a microplate reader (ELx800 Absorbance Microplate Reader, BioTek). Data analysis and curve fitting were performed using software (GraphPad Prism 8).

T1 sequence (Q08722 19-323): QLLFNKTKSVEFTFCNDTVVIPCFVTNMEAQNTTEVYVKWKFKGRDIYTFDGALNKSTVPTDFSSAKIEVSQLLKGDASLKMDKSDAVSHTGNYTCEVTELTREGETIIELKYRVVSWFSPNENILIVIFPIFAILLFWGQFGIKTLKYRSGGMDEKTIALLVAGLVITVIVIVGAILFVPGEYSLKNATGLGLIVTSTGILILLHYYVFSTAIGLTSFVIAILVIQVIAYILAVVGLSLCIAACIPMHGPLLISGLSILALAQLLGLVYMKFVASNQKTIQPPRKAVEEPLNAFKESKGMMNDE

B1: CD47 TMEAbody: CD47 TMEAbody conjugated with PEG of approximately 20K molecular weight (i.e., PEG20K) (conjugate)
VH: QQQLEESGGGLVKPEGSLTLTCTASGFSFSSGYDMCWVRQAPGRGLEWIACIYTRSSGGTCYASWAKGRFTISKTSSTVDLRMTSLTAADTATYFCAGGRSSYRLNLWGQGALVTVSS
VL: DVVMTQTPSPVEAAVGGTVTIKCQASQSISNELSWYQQKPGQPPKLLIYRASTLESGVSSRFKGSGSGTEFTLTISDLECADAATYYCQSTFYGDYGNAFGGGTEVVVK
binding affinity weaker compared to 70H1: approximately 7 fold | recovery of binding affinity (legumain (asparaginyl endopeptidase, AEP)): recoverable by legumain
